Assay results from US20120039908A1 (TRANSTECH PHARMA, published 2012).
“And” between values parts separate entries of the source, which are not always exact repeats. Equal entries are not always repeated. One block for each binder: values may come before it.

Columns and labels:
[1] = target: T1, Abeta (human Aβ peptide; Aβ1-40 or Aβ1-28, Table 5 does not say which) (human, UniProt P05067 672-711); assay: ELISA, Abeta peptide coated on plate; reference S1 control
T1 construct: Coated on the ELISA plate at 20 µg/mL in 1% NH4OH; also called A-beta peptide; amyloid beta
Experimental: (§1) Assay for A3 peptide binding activities: Briefly, two human Aβ peptides were tested: Aβ1-40 (Catalogue# A-1153-2, Rpeptide), and Aβ1-28 (Catalogue#24232, AnaSpec). The plates were coated by 20 μg/mL peptide in 1% NH₄OH overnight at 4° C. The plate was then washed with blocking buffer (TBS pH8.0, 0.05% Tween20, and 1% BSA) and blocked for 1 hr at room temperature. All the other steps were performed essentially as described previously herein for S100b binding assay, supra.

[2] = target: T1, Abeta (human Aβ peptide; Aβ1-40 or …); assay: ELISA, Abeta peptide coated on plate, sRAGE-Ig titrated, anti-human IgG-HRP
Experimental: as §1

[3] = target: T2, S100b protein (Cat. No. 559290, Calbiochem); assay: ELISA, S100b coated on plate; reference S1 control
T2 construct: Coated on the ELISA plate at 20 µg/mL in TBS pH 8.0 with 5 mM CaCl2; also called RAGE ligand S100b
T2 sequence (P04271 2-92, species assumed, looked up): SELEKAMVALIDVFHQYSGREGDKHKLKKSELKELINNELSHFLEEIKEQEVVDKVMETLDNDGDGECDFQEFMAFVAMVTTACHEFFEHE
Experimental: (§2) S100b binding ELISA: An ELISA assay plate was coated with 100 μL/well of 20 μg/mL S100b protein (Cat. No. 559290, Calbiochem, Gibbstown, N.J.) in coating buffer (Tris buffered saline [TBS], pH8.0, with 5 mM CaCl₂) overnight at 4° C. The plate was then washed three times with blocking buffer (TBS pH8.0, with 5 mM CaCl₂, 0.05% Tween20, and 1% bovine serum albumin [BSA]), and blocked with the blocking buffer for 1-1.5 hr. sRAGE-Ig fusion samples were prepared in a separate dilution plate, the highest concentration was 10 μg/mL in blocking buffer, with 1:4 serial dilution in blocking buffer down to 2.4 ng/mL. After blocking, the assay plate was washed with the blocking buffer and 100 μL of the samples were transferred from the dilution plate to the assay plate. The assay plate was incubated at room temperature for 2.5 hr. The assay plate was then washed three times with the blocking buffer, with 1 min soaking time between the washes. The horseradish peroxidase conjugated goat anti-human IgG (Cat. No. A2290, Sigma, St. Louis, Mo.) was added to the plate with 100 μL/well at 1:2500 dilution in the blocking buffer. The plate was incubated for 1 hr at room temperature. The assay plate was then washed three times with the blocking buffer again, and 100 μL 3,3′,5,5′-tetramethylbenzidine (TMB; Cat. No. 34022, Pierce, Rockford, Ill.) was added to each well and the plate was incubated for 8 minutes at room temperature. 100 μL of 1M H₂SO₄ was then added to each well, the plate was shaken and read at 450 nm on a microplate reader.

[4] = target: T2, S100b protein (Cat. No. 559290, …); assay: ELISA, S100b coated on plate, sRAGE-Ig titrated, anti-human IgG-HRP
Experimental: as §2

[5] = target: T2, S100b protein (Cat. No. 559290, …); assay: ELISA, S100b coated on plate; reference S1
Experimental: as §2, with “The assay plate was then washed three times with the blocking buffer again, and 100 μL 3,3′,5,5′-tetramethylbenzidine (TMB; Cat. No. 34022, Pierce, Rockford, Ill.) was added to each well and the plate was incubated for 8 minutes at room temperature.” left out

[6] = target: T1, Abeta (human Aβ peptide; Aβ1-40 or …); assay: ELISA, Abeta peptide coated on plate; reference S1
Experimental: as §1

[7] = target: T1, Abeta (human Aβ peptide; Aβ1-40 or …); assay: ELISA, Abeta peptide coated on plate; reference S2F1
Experimental: as §1

[8] = target: T2, S100b protein (Cat. No. 559290, …); assay: ELISA, S100b coated on plate; reference S1F1
Experimental: as §2, with “The assay plate was then washed three times with the blocking buffer again, and 100 μL 3,3′,5,5′-tetramethylbenzidine (TMB; Cat. No. 34022, Pierce, Rockford, Ill.) was added to each well and the plate was incubated for 8 minutes at room temperature.” left out

T1 sequence (P05067 672-711 limits assumed): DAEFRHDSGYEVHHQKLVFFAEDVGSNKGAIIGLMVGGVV

B1: sRAGE-Ig fusion protein, sample S1 (control, from untreated CHO cells, unfractionated) (Fc fusion)
chain: QNITARIGEPLVLKCKGAPKKPPQRLEWKLNTGRTEAWKVLSPQGGGPWDSVARVLPNGSLFLPAVGIQDEGIFRCQAMNRNGKETKSNYRVRVYQIPGKPEIVDSASELTAGVPNKVGTCVSEGSYPAGTLSWHLDGKPLVPNEKGVSVKEQTRRHPETGLFTLQSELMVTPAPGGDPRPTFSCSFSPGLPRHRALRTAPIQPRVWEPVPLEEVQLVVEPEGGAVAPPSVFLFPPKPKDTLMISRTPEVTCVVVDVSHEDPEVKFNWYVDGVEVHNAKTKPREEQYNSTYRVVSVLTVLHQDWLNGKEYKCKVSNKALPAPIEKTISKAKGQPREPQVYTLPPSRDELTKNQVSLTCLVKGFYPSDIAVEWESNGQPENNYKTTPPVLDSDGPFFLYSKLTVDKSRWQQGNVFSCSVMHEALHNHYTQKSLSLSPGK
modifications: N-terminal Gln1 cyclized to pyroglutamic acid (pE1); N-linked glycan sites N2, N58, N288 (numbering without the signal): mixture 3-Glycan = 67%, 2-Glycan = 22%
notes: Mostly a non-covalent homodimer (about 78%), with about 19% heterodimer with a furin-cleaved Fc fragment; C-terminal Lys438 partly clipped; also called S1 = control (untreated); sRAGE-Fc
- Relative binding compared to control [1]: 100%
- IC50 [2]: 1.24 nM
- Relative binding compared to control [3]: 100%
- IC50 [4]: 0.18 µg/mL and 1.8 nM

B2: sRAGE-Ig fusion protein, sample 1 fraction 2 (S1F2), 2-glycan species from untreated CHO cells (Fc fusion)
chain: B1 chain
modifications: pE1; two of the three N-linked sites (N2, N58, N288) occupied; the filing cannot tell which
notes: RP-HPLC fraction; also called 2-Glycan only
- IC50 [2]: 0.73 nM
- IC50 [4]: 0.104 µg/mL and 1.04 nM

B5: sRAGE-Ig fusion protein, sample 2 fraction 2 (S2F2), 2-glycan species from tunicamycin treated CHO cells (Fc fusion)
chain: B1 chain
modifications: pE1; two of the three N-linked sites (N2, N58, N288) occupied; the filing cannot tell which
notes: RP-HPLC fraction; also called 2-Glycan only; doubly occupied variant
- IC50 [2]: 0.52 nM
- IC50 [4]: 0.1 µg/mL and 1 nM

B7: sRAGE-Ig fusion protein, sample 1 fraction 1 (S1F1), 3-glycan species from untreated CHO cells (Fc fusion)
chain: B1 chain
modifications: pE1; N-linked glycans at all three sites N2, N58, N288 (3-glycan only)
notes: RP-HPLC fraction exchanged into a stabilizing buffer before the ELISA; also called 3-Glycan only; fully occupied 3-glycan version
- IC50 [2]: 1.21 nM
- IC50 [4]: 0.39 µg/mL and 3.9 nM

Now from value to binder:

- fold binding relative to sample S1 [5]: ~3 fold
- Relative binding compared to control [1]: 151%
- IC50 [2]: 0.82 nM
- Relative binding compared to control [3]: 295%
- IC50 [4]: 0.061 µg/mL and 0.61 nM
- fold binding relative to sample S1 [6]: ~1.5 fold
B3: sRAGE-Ig fusion protein, sample S2 (from CHO cells treated with tunicamycin, unfractionated) (Fc fusion)
chain: B1 chain
modifications: pE1; N-linked sites N2, N58, N288: mixture 3-Glycan = 42%, 2-Glycan = 16%, 0-Glycan = 31%
notes: Cells treated with 5 µg/mL tunicamycin for 3 days; also called S2 = TMYCN (treated with tunicamycin)

- fold increase in binding compared to 3-glycan S2F1 [7]: 6 fold
- fold increase in binding compared to S1 control [5]: 5 fold
- Relative binding compared to control [1]: 295%
- IC50 [2]: 0.42 nM
- Relative binding compared to control [3]: 529%
- fold increase in binding compared to 3-glycan S1F1 [8]: 10 fold
- IC50 [4]: 0.034 µg/mL and 0.34 nM
- fold increase in binding compared to S1 control [6]: 3 fold
B4: sRAGE-Ig fusion protein, sample 2 fraction 3 (S2F3), 0-glycan (aglycosylated) species from tunicamycin treated CHO cells (Fc fusion)
chain: B1 chain
modifications: pyroglutamic acid (pE) at the N-terminus; no glycan at N2, N58 or N288; mixture with or without C-terminal lysine
notes: RP-HPLC fraction; its mass agrees with the theoretical mass of the unglycosylated fusion protein; also called 0-Glycan only; aglycosylated variant

- IC50 [2]: 2.51 nM
- IC50 [4]: 0.89 µg/mL and 8.9 nM
B6: sRAGE-Ig fusion protein, sample 2 fraction 1 (S2F1), 3-glycan species from tunicamycin treated CHO cells (Fc fusion)
chain: B1 chain
modifications: pE1; N-linked glycans at all three sites N2, N58, N288 (3-glycan only)
notes: RP-HPLC fraction; also called 3-Glycan only
